# Results from PMC5153698.
# B1: human chemokine receptor CXCR4, C-terminally tagged with Rluc8 or mVenus, P61073 1-352 (receptor)
# chain: MEGISIYTSDNYTEEMGSGDYDSMKEPCFREENANFNKIFLPTIYSIIFLTGIVGNGLVILVMGYQKKLRSMTDKYRLHLSVADLLFVITLPFWAVDAVANWYFGNFLCKAVHVIYTVNLYSSVLILAFISLDRYLAIVHATNSQRPRKLLAEKVVYVGVWIPALLLTIPDFIFANVSEADDRYICDRFYPNDLWVVVFQFQHIMVGLILPGIVILSCYCIIISKLSHSKGHQKRKALKTTVILILAFFACWLPYYIGISIDSFILLEIIKQGCEFENTVHKWISITEALAFFHCCLNPILYAFLGAKFKTSAQHALTSVSRGSSLKILSKGKRGGHSSVSTESESSSFHSS
# Target: T1, human chemokine receptor CXCR4, C-terminally tagged with Rluc8 or mVenus (human), P61073
# T1 chain: B1 chain
# Experiment: FRET or BRET
# Conditions: remark: other sources report otherwise
binder,measurement,value
B1,BRET50,0.11
